From publication PMC6613885

Biological target: GST-LC3B, Q9GZQ8
Assay: GST-pulldown, in vitro-translated 35S-labelled protein, autoradiography quantification
Settings: chain shown with the change; Means ± SD of 3 independent experiments; parent: est. 1.0; read off a plot

response: 0.6 % binding
B1: Myc-tagged ATG14, full-length, in vitro translated, Q6ZNE5 F64A; F67A; W435A; L438A (protein)
chain: MASPSGKGARALEAPGCGPRPLARDLVDSVDDAEGLYVAVERCPLCNTTRRRLTCAKCVQSGDAVYADGRDRERFIDKKERLSRLKSKQEEFQKEVLKAMEGKWITDQLRWKIMSCKMRIEQLKQTICKGNEEMEKNSEGLLKTKEKNQKLYSRAQRHQEKKEKIQRHNRKLGDLVEKKTIDLRSHYERLANLRRSHILELTSVIFPIEEVKTGVRDPADVSSESDSAMTSSTVSKLAEARRTTYLSGRWVCDDHNGDTSISITGPWISLPNNGDYSAYYSWVEEKKTTQGPDMEQSNPAYTISAALCYATQLVNILSHILDVNLPKKLCNSEFCGENLSKQKFTRAVKKLNANILYLCFSQHVNLDQLQPLHTLRNLMYLVSPSSEHLGRSGPFEVRADLEESMEFVDPGVAGESDESGDERVSDEETDLGTDAENAPSPRFCDIPSQSVEVSQSQSTQASPPIASSSAGGMISSAAASVTSWFKAYTGHR
